Experiment [1] concerns the target TGFβ receptor II (TGFβRII) on IMR90 human lung fibroblasts (human) (UniProt P37173). Kind of experiment: cell-based or functional assay.
The target of experiment [2] is TGFβ receptor on mink lung epithelial cells (MLEC-TGFβ, PAI-1 promoter luciferase reporter) (mink). Kind of experiment: cell-based or functional assay.

The values below come from patent US20170190778A1.

TGFβ receptor II (TGFβRII) on IMR90 human lung fibroblasts (human), sequence (P37173 23-567): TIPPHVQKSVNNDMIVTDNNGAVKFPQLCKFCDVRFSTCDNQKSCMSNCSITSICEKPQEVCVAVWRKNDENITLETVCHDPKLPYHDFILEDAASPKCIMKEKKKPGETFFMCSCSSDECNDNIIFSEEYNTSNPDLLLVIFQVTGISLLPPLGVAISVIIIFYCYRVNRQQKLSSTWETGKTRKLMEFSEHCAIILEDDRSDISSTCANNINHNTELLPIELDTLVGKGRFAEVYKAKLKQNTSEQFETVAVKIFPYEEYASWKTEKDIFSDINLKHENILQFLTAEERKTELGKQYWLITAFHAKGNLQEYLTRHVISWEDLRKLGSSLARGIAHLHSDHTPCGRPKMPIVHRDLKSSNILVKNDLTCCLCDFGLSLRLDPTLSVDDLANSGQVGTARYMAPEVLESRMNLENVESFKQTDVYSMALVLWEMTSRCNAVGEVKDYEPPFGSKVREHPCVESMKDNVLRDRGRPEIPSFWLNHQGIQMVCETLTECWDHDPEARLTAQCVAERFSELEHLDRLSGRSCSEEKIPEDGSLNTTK

The substance “N-terminal Tsp repeat domain of mouse ACLP (amino acids 26-373, C-terminal myc-His tag) (from UniProt Q640N1 26-373) (ligand)” showed a Smad3 phosphorylation in IMR90 cells (Western blot, 30 min) in experiment [1] of 30 nM. This substance also showed a luciferase activity (PAI-1 promoter reporter in MLEC cells) in experiment [2] of 5 µg/mL.

“C-terminal discoidin and carboxypeptidase domains of mouse ACLP (amino acids 374-1128, C-terminal myc-His tag) (from UniProt Q640N1 374-1128)” registered an SMA and collagen protein expression in IMR90 cells (48 h) in experiment [1] of 30 nM. For the same substance, the luciferase activity (PAI-1 promoter reporter in MLEC cells) in experiment [2] stood at 25 µg/mL.
